As a reminder, the Kd is the equilibrium constant for the complex coming apart. A higher Kd goes with weaker binding.

For this experiment, the target named is biotinylated D-form of SARS-CoV-2 HR1 (SARS-CoV-2).

D-form of EK1 (peptide) returned a Kd of 32 nM.

For the origin of these results see patent publication US20220119464A1.
